The values below come from article PMC12857291.

Data set [1] addresses T1, MeCP2-MBD WT (UniProt P51608 80-164). As to the kind of experiment: EMSA; no peptide; EMSA: 0.5 uM DNA, 0-20 uM protein, 50 mM HEPES pH 7.5, 100 mM NaCl, 1 h at 4 C; 6% native PAGE, 1X TBE, 80 V, 4 C; SYBR Gold; n=3. As to conditions: protein: recombinant; tags: C-terminal 6xHis; label: none (SYBR Gold stain); blunt. (In general: A gel shift assay detects complexes by their altered migration in electrophoresis.)

For data set [2], the target named is T1, MeCP2-MBD WT. As to the kind of experiment: EMSA; 20 uM histone H3(15-36)K27me3 peptide; EMSA: 0.5 uM DNA, 0-20 uM protein, 50 mM HEPES pH 7.5, 100 mM NaCl, 1 h at 4 C; 6% native PAGE, 1X TBE, 80 V, 4 C; SYBR Gold; n=3. As to conditions: protein: recombinant; tags: C-terminal 6xHis; label: none (SYBR Gold stain); blunt.

T1 sequence (P51608 80-164): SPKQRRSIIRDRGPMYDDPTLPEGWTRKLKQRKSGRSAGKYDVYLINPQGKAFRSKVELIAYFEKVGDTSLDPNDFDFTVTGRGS

B1: BDNF promoter duplex mC/mC (dsDNA)
DNA 1: GCCCTGGAACGGAACTCTTCTGGCC
DNA 2: GGCCAGAAGAGTTCCGTTCCAGGGC
modifications: 5-methyl-dC at position 10 of the top strand and position 15 of the bottom strand (symmetric mCpG)
By Kd is commonly meant a measure of binding affinity in units of concentration. Regarding B1, the Kd in data set [1] was 1200 ± 100 nM; in data set [2] it was 1300 ± 100 nM.
